The results in this text go back to article PMC6134094 (mBio, 2018).

The target in the assay is T1, cleaved Ebola virus (EBOV) glycoprotein GPCL (Ebola virus (Zaire ebolavirus), UniProt Q05320).
T1 construct: copies: 3 + 3
Description: crystal structure. The conditions noted are these: both partners purified.

B1: ADI-15878 fragment antigen binding (Fab) (Fab, V domains shown)
VH: QVQLVQSGVTLVQPGGSLRVSCAASGFTFSSYAMSWVRQAPGKGLEWVSAISGLGGSTYYADSVKGRFTISRDNSKNTLYLQMNSLRAEDTAVYYCAKDHRVWAAGYHFDYWGQGALVTVSS
VL: DIVLTQSPSTLSASVGDRVTITCRASQSISSWLAWYQQKPGEAPKLLISDASSLESGVPSRFSGSGSGTEFTLTISSLQPDDFATYYCQQYYSSPTFGGGTKVEIK
notes: also called ADI-15878 Fab
Take B1: the binding result is given as “binds”.
